For data set [1] the following is noted: general knowledge stated in the patent; cited from earlier work.
Data set [2] is described as follows: Blood-brain barrier permeability of the nucleic acid complex in a mouse model (cy3 fluorescence in brain tissue, confocal microscopy). The class given is in vivo. The conditions noted are these: ICR mice, 20 mg/kg caudal vein; for distribution of fluorescence expression among brain regions: 20 mg/kg.
Description: In order to confirm the blood-brain barrier permeability of the nucleic acid complex, 6-week-old male ICR mice (OrientBio, Korea) were purchased and acclimatized for a week, after which 20 mg/kg (n=6) of the nucleic acid complex was administered to the caudal veins thereof. In a positive control group (n=6), fluorescent-material-labeled methotrexate was administered to the caudal veins, and in a negative control group (n=6), DMSO at the same concentration as in the experimental group was diluted with saline and administered via the same route.
The mouse model was anesthetized by intraperitoneal administration of Avertin (5 mg/kg), followed by washing and fixing of the brain tissue through perfusion with saline and 4% paraformaldehyde. The fixed brain tissue was separated and dehydrated by placing the same in 30% sugar water for 24 hours, after which an embedding process was performed using OCT. The entire region of the brain tissue was cryosectioned into 30 μm sections. In order to observe the entire brain tissue from the cerebral cortex to the brainstem, the tissues were broadly separated into a total of six regions, namely the prefrontal cortex, lateral ventricle, paraventricular nucleus, hippocampus, midbrain, and cerebellum, and mounted on slide glasses, and the nuclei were stained with DAPI for 15 minutes and then analyzed using a confocal microscope.
Therefore, in order to determine whether the administered material spreads through the present system, the brain tissue was classified into six major regions from the front to the back and analyzed. In addition, in order to observe the extent of spreading over time, the groups were separately observed on day 1 and day 3, and the numerical values thereof were analyzed.
Then, for all experimental groups to which the nucleic acid complex was administered, the distribution of fluorescence in tissues depending on the administration date was numerically analyzed, and the distribution of fluorescence expression in each tissue of the brain after administration of the nucleic acid complex was compared.

Entries after “also recorded” stand apart in the source; their conditions may differ.

As for `O=C(O)CCCc1ccc(N(CCCl)CCCl)cc1` [Chlorambucil], the “blood-brain barrier crossing (known)” value in data set [1] is listed as “incapable of crossing the blood-brain barrier”.

Regarding `CN(Cc1cnc2nc(N)nc(N)c2n1)c1ccc(C(=O)N[C@@H](CCC(=O)O)C(=O)O)cc1` [Methotrexate], in data set [1], the “bioavailability (known)” value was “very low bioavailability” and the “blood-brain barrier crossing (known)” value is on record as “known to cross the blood-brain barrier”.

As for “POLIGO ™_1 (chain 1 ATGATTCTGCCCTCC; chain 2 TACTAAGACGGGAGG; chemistry not given here; one strand is listed 3' to 5')”, the “fluorescence expression by cy3 in brain tissue (confocal microscopy)” value in data set [2] (FIG. 1, versus group given only methotrexate) is listed as “high fluorescence expression compared to the group administered only with methotrexate”. The “fluorescence expression, day 3 versus day 1” value in data set [2] (all brain tissue regions) is listed as “higher on day 3 than on day 1 in all brain tissue regions”. Moreover, the “distribution of fluorescence expression among brain regions” value was “higher in the midbrain and cerebellum; also recorded: high in the midbrain and cerebellum” in data set [2] (day 1); “the fluorescence spread to the prefrontal cortex; also recorded: high even in the prefrontal cortex” in data set [2] (day 3).
